# Measured values published in PMC4776207.
# Target: ISAV s8ORF2 protein (protein encoded by the largest open reading frame of gene segment 8) (infectious salmon anaemia virus (ISAV), strain Glesvaer/2/90)
# Experiment: non-reducing SDS-PAGE with western blot
substance,measurement,value
ISAV s8ORF2 protein (protein encoded by the largest open reading frame of gene segment 8) (natural protein),stoichiometry N,2
